The values that follow come from publication PMC10440015.

Assay [1] concerns the target FFNFFKG-Toyopearl resin. Briefly: affinity chromatography.
A further assay deals with KWWIWAG-Toyopearl resin. In words: affinity chromatography.
In a further assay the target is …-Toyopearl resin. Briefly: affinity chromatography.
Assay [2] has as its target KFNHWFG-Toyopearl resin. In words: batch adsorption isotherm.
The target of assay [3] is FFNFFKG-Toyopearl resin. In words: breakthrough chromatography.
In assay [4] the target is KFNHWFG-Toyopearl resin. In words: breakthrough chromatography.
In a further assay the target is FNHFFIG-Toyopearl resin. In words: affinity chromatography.
The next assay concerns the target GYISRHPG-Toyopearl resin. Briefly: affinity chromatography.
Assay [5] concerns the target KFNHWFG-Toyopearl resin. Briefly: affinity chromatography.
For a further assay, the target named is WKAHNKG-Toyopearl resin. Briefly: affinity chromatography.
The target in another assay is WWIKISG-Toyopearl resin. Briefly: affinity chromatography.
Assay [6] deals with the peptide-based adsorbents. Briefly: affinity chromatography.

Where “and” joins values, the source holds several entries; their conditions need not be identical. Equal entries are not always repeated.

Regarding “Adeno-associated virus serotype 9 capsid (complex)”, the yield (AAV titer in elution fraction vs. load) with FFNFFKG-Toyopearl resin [1] was 72.4%; with KWWIWAG-Toyopearl resin it was 57.2%; with …-Toyopearl resin it was 61.7% and 43.9% and 53.7%.
For orientation: Kd means the constant that tells how readily two partners part at equilibrium. Low readings indicate a tighter complex, high ones a looser complex. “Adeno-associated virus serotype 2 capsid (complex)” yielded a dissociation constant (Kd) with KFNHWFG-Toyopearl resin [2] of 0.16 pM. In addition, the DBC10% (dynamic binding capacity at 10% breakthrough) (vp AAV per mL of resin) in the assay with FFNFFKG-Toyopearl resin [3] worked out at 1.4e+13; with KFNHWFG-Toyopearl resin [4], 1.33e+13. For the same substance, the loss (AAV titer in flow-through and wash vs. load) in the assay with FFNFFKG-Toyopearl resin [1], with FNHFFIG-Toyopearl resin, with GYISRHPG-Toyopearl resin, in the assay with KFNHWFG-Toyopearl resin [5], with KWWIWAG-Toyopearl resin and in the assay with WKAHNKG-Toyopearl resin was < 1.7% each time. The loss (AAV titer in flow-through and wash vs. load) with WWIKISG-Toyopearl resin was < 1.7%; in [6], 1 to 4%; with …-Toyopearl resin, < 1.7%. Also, the yield (AAV titer in elution fraction vs. load) with KFNHWFG-Toyopearl resin [5] is 45%; with WKAHNKG-Toyopearl resin it was 79.8%; in [6], 40 to 65%; in the assay with …-Toyopearl resin, 54.9% and 44.8%.
